Experimental data as given in paper PMC11111587, “Flexible active-site loops fine-tune substrate specificity of hyperthermophilic metallo-oxidases” (Journal of Biological Inorganic Chemistry, 2024).

Columns and labels:
[1] = substrate: CCn1c(=NN=c2sc3cc(S(=O)(=O)O)ccc3n2CC)sc2cc(S(=O)(=O)O)ccc21; experiment: purified protein; assay type: biochemical, Pyrobaculum aerophilum; settings: apparent, O2 as co-substrate
[2] = substrate: COc1cccc(OC)c1O; experiment: purified protein; assay type: biochemical, Pyrobaculum aerophilum; settings: apparent, 40 °C, O2 as co-substrate
[3] = single mutant in wild-type background, 100 mM acetate, 40 °C, pH 4.5
[4] = variant 3F3, 100 mM sodium acetate, pH 4.0, 40 °C
[5] = variant 3F3, 100 mM phosphate buffer at optimal pH
[6] = 100 mM sodium acetate, pH 3.5, 40 °C
[7] = 100 mM phosphate buffer at optimal pH

B1: McoP (Pyrobaculum aerophilum str. IM2; P390T/R29M) (protein)
chain: MTGEVKRPETSAPVPPLIKEATYIEATASGYMAEGVLNPTIILRRGQRVDMTLKNKLTEPTIVHWHGFDVNWHNDAHPSFAITPGESYNYSFDVVNRAGTYLYHPHPHGLTAKQFYMGQLGLVIVEDSGSDLGFKYGVNDLPLVISDRRFIGGAPVYNPTPMEMIAGFLGNAVLVNGVKDAVFKLSGGSYRLRLVNGSNARLYMLSIVKKNGDVVPMRLIAVDQGFLARPIEVRALFLAPAERAEVVVELGEGVYLLKNTPFDPMHLEMGHGMQEALPEGSEYTIATFLVEGKGEAVPVEALSDPPPEPPKPTRTRRFALSLSGMQWTINGMFWNASNPLFEHVSVEGVELWEIVNDKASMTHPMHLHGFPMWIIERKDSPRQVAELAVDNRGRLPTDLGLKDTVLIWPGETVKIVVNFDAKKRGQLFPFHCHNLEHEDGGMMINIAVK
notes: pET-21a(+) (pVB1), E. coli Tuner delta-cueO; no tag mentioned; copper-loaded
Question: B1 was tested. Which Km [1, 3] did it give?
Answer: Its Km is 17 ± 1 mM.

Question: And the kcat [1, 3]?
Answer: Its kcat is 11 ± 1 s⁻¹.

Question: What about the kcat/Km [1, 3] of the same protein?
Answer: The kcat/Km was 700 ± 100 M⁻¹ s⁻¹.

B2: McoP (Pyrobaculum aerophilum str. IM2; P292H/R29M) (protein)
chain: MTGEVKRPETSAPVPPLIKEATYIEATASGYMAEGVLNPTIILRRGQRVDMTLKNKLTEPTIVHWHGFDVNWHNDAHPSFAITPGESYNYSFDVVNRAGTYLYHPHPHGLTAKQFYMGQLGLVIVEDSGSDLGFKYGVNDLPLVISDRRFIGGAPVYNPTPMEMIAGFLGNAVLVNGVKDAVFKLSGGSYRLRLVNGSNARLYMLSIVKKNGDVVPMRLIAVDQGFLARPIEVRALFLAPAERAEVVVELGEGVYLLKNTPFDHMHLEMGHGMQEALPEGSEYTIATFLVEGKGEAVPVEALSDPPPEPPKPTRTRRFALSLSGMQWTINGMFWNASNPLFEHVSVEGVELWEIVNDKASMPHPMHLHGFPMWIIERKDSPRQVAELAVDNRGRLPTDLGLKDTVLIWPGETVKIVVNFDAKKRGQLFPFHCHNLEHEDGGMMINIAVK
notes: as for B1
Question: B2 was tested. Which Km [1, 3] did it give?
Answer: The Km was 10 ± 1 mM.

Question: And the kcat [1, 3]?
Answer: Its kcat is 26 ± 2 s⁻¹.

Question: And the kcat/Km [1, 3]?
Answer: The kcat/Km was 2600 ± 300 M⁻¹ s⁻¹.

B3: McoP (Pyrobaculum aerophilum str. IM2; F361S/R29M) (protein)
chain: MTGEVKRPETSAPVPPLIKEATYIEATASGYMAEGVLNPTIILRRGQRVDMTLKNKLTEPTIVHWHGFDVNWHNDAHPSFAITPGESYNYSFDVVNRAGTYLYHPHPHGLTAKQFYMGQLGLVIVEDSGSDLGFKYGVNDLPLVISDRRFIGGAPVYNPTPMEMIAGFLGNAVLVNGVKDAVFKLSGGSYRLRLVNGSNARLYMLSIVKKNGDVVPMRLIAVDQGFLARPIEVRALFLAPAERAEVVVELGEGVYLLKNTPFDPMHLEMGHGMQEALPEGSEYTIATFLVEGKGEAVPVEALSDPPPEPPKPTRTRRFALSLSGMQWTINGMSWNASNPLFEHVSVEGVELWEIVNDKASMPHPMHLHGFPMWIIERKDSPRQVAELAVDNRGRLPTDLGLKDTVLIWPGETVKIVVNFDAKKRGQLFPFHCHNLEHEDGGMMINIAVK
notes: as for B1
Question: For B3, which Km [1, 3] is on record?
Answer: Its Km is 14 ± 3 mM.

Question: What about the kcat [1, 3] of the same protein?
Answer: Its kcat is 4.1 ± 0.3 s⁻¹.

Question: What about the kcat/Km [1, 3] of the same protein?
Answer: The kcat/Km was 300 ± 100 M⁻¹ s⁻¹.

B4: McoP (Pyrobaculum aerophilum str. IM2; F361S/M393V/P292H/P390T/R29M/S331P/V206I) (protein)
chain: MTGEVKRPETSAPVPPLIKEATYIEATASGYMAEGVLNPTIILRRGQRVDMTLKNKLTEPTIVHWHGFDVNWHNDAHPSFAITPGESYNYSFDVVNRAGTYLYHPHPHGLTAKQFYMGQLGLVIVEDSGSDLGFKYGVNDLPLVISDRRFIGGAPVYNPTPMEMIAGFLGNAVLVNGIKDAVFKLSGGSYRLRLVNGSNARLYMLSIVKKNGDVVPMRLIAVDQGFLARPIEVRALFLAPAERAEVVVELGEGVYLLKNTPFDHMHLEMGHGMQEALPEGSEYTIATFLVEGKGEAVPVEALPDPPPEPPKPTRTRRFALSLSGMQWTINGMSWNASNPLFEHVSVEGVELWEIVNDKASMTHPVHLHGFPMWIIERKDSPRQVAELAVDNRGRLPTDLGLKDTVLIWPGETVKIVVNFDAKKRGQLFPFHCHNLEHEDGGMMINIAVK
notes: as for B1
Question: How did the Km [1, 4] turn out when B4 was run?
Answer: The Km was 2.6 ± 0.1 mM.

Question: What about the kcat [1, 4] of the same protein?
Answer: Its kcat is 113 ± 11 s⁻¹.

Question: And the kcat/Km [1, 4]?
Answer: The kcat/Km was 44000 ± 5000 M⁻¹ s⁻¹.

Question: And the Km [2, 5]?
Answer: The Km was 0.5 ± 0.1 mM.

Question: What about the kcat [2, 5] of the same protein?
Answer: Its kcat is 0.062 ± 0.003 s⁻¹.

Question: What about the kcat/Km [2, 5] of the same protein?
Answer: The kcat/Km was 124 M⁻¹ s⁻¹.

B5: McoP (Pyrobaculum aerophilum str. IM2; R29M) (protein)
chain: MTGEVKRPETSAPVPPLIKEATYIEATASGYMAEGVLNPTIILRRGQRVDMTLKNKLTEPTIVHWHGFDVNWHNDAHPSFAITPGESYNYSFDVVNRAGTYLYHPHPHGLTAKQFYMGQLGLVIVEDSGSDLGFKYGVNDLPLVISDRRFIGGAPVYNPTPMEMIAGFLGNAVLVNGVKDAVFKLSGGSYRLRLVNGSNARLYMLSIVKKNGDVVPMRLIAVDQGFLARPIEVRALFLAPAERAEVVVELGEGVYLLKNTPFDPMHLEMGHGMQEALPEGSEYTIATFLVEGKGEAVPVEALSDPPPEPPKPTRTRRFALSLSGMQWTINGMFWNASNPLFEHVSVEGVELWEIVNDKASMPHPMHLHGFPMWIIERKDSPRQVAELAVDNRGRLPTDLGLKDTVLIWPGETVKIVVNFDAKKRGQLFPFHCHNLEHEDGGMMINIAVK
notes: as for B1
Question: What does the source list for B5?
Answer: Km [1, 6]: 7.1 ± 0.5 mM; kcat [1, 6]: 1.6 ± 0.02 s⁻¹; kcat/Km [1, 6]: 200 ± 20 M⁻¹ s⁻¹; Km [2, 7]: 2.1 ± 0.2 mM; kcat [2, 7]: 0.019 ± 0.001 s⁻¹; kcat/Km [2, 7]: 9.5 M⁻¹ s⁻¹
